Test results from patent US20180086821A1 (MAYO FOUNDATION FOR MEDICAL EDUCATION AND RESEARCH, published 2018).

How the values were obtained:
[1] = target: T1, bovine serum albumin (BSA) (bovine, UniProt P02769 25-607); test: solid-phase ELISA
T1 construct: Carrier alone, without hapten; also called carrier protein BSA

[2] = target: T2, human RBC spectrin (human, UniProt P02549 1-2419; P11277 2-2137); test: direct ELISA, mAb at 2 µg/ml
T2 construct: Bought from Sigma; also called human erythrocyte spectrin
T2 sequence (P02549 whole entry, chain 1 of 2): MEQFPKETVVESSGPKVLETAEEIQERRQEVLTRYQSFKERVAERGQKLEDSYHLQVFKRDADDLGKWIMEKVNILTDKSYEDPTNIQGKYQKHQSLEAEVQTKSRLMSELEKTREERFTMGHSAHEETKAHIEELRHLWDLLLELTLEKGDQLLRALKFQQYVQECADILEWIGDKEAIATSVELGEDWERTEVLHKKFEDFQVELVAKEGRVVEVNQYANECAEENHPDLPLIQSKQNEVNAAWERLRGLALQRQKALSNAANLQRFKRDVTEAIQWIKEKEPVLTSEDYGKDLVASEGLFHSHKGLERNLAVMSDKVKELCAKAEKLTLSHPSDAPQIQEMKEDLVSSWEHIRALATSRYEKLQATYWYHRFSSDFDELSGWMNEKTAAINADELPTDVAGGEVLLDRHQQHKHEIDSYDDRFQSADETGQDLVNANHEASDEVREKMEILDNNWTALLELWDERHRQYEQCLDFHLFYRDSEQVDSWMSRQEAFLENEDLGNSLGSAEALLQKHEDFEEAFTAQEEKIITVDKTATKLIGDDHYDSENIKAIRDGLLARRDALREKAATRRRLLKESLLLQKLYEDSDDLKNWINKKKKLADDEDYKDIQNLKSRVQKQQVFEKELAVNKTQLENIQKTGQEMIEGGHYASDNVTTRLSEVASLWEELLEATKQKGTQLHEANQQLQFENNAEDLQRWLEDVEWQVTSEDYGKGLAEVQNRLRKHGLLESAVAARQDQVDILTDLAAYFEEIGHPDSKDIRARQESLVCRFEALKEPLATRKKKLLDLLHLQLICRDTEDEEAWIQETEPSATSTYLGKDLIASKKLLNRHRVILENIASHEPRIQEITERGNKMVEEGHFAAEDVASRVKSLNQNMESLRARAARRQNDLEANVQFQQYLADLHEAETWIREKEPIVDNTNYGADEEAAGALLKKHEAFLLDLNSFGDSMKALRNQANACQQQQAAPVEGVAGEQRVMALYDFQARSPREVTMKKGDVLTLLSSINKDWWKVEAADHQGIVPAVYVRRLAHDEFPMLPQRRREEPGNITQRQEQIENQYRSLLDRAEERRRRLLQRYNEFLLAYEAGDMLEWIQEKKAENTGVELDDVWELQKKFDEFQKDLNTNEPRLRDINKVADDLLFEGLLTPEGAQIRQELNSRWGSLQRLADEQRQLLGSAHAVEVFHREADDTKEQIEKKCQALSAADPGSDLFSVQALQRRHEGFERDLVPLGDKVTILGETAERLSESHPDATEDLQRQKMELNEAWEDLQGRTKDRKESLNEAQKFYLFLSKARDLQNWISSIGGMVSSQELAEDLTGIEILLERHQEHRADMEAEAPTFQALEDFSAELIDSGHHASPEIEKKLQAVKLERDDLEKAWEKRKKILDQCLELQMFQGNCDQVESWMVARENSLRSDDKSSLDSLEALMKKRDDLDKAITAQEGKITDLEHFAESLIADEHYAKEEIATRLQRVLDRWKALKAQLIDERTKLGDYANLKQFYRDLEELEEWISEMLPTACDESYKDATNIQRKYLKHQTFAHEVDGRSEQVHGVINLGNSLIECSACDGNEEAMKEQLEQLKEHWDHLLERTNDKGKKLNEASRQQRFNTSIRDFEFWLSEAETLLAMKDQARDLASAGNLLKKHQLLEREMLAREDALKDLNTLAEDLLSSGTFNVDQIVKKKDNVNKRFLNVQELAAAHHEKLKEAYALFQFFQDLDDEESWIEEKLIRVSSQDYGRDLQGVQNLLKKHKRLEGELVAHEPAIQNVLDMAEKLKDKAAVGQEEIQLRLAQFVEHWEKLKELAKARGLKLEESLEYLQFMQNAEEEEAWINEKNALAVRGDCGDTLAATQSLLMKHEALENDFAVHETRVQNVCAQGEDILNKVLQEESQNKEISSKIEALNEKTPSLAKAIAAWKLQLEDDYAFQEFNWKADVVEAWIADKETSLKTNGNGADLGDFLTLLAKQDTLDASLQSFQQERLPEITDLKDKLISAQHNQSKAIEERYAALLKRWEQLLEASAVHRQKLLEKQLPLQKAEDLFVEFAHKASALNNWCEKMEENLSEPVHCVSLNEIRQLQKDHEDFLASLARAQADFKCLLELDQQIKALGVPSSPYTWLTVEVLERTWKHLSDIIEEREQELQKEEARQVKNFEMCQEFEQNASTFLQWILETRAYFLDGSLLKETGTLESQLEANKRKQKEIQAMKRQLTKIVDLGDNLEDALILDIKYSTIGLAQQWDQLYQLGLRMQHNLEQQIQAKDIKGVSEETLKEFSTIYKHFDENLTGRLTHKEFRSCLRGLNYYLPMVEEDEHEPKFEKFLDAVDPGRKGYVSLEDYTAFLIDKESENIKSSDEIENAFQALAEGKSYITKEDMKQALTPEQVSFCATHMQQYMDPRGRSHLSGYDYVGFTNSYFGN
T2 sequence (P11277 2-2137, chain 2 of 2): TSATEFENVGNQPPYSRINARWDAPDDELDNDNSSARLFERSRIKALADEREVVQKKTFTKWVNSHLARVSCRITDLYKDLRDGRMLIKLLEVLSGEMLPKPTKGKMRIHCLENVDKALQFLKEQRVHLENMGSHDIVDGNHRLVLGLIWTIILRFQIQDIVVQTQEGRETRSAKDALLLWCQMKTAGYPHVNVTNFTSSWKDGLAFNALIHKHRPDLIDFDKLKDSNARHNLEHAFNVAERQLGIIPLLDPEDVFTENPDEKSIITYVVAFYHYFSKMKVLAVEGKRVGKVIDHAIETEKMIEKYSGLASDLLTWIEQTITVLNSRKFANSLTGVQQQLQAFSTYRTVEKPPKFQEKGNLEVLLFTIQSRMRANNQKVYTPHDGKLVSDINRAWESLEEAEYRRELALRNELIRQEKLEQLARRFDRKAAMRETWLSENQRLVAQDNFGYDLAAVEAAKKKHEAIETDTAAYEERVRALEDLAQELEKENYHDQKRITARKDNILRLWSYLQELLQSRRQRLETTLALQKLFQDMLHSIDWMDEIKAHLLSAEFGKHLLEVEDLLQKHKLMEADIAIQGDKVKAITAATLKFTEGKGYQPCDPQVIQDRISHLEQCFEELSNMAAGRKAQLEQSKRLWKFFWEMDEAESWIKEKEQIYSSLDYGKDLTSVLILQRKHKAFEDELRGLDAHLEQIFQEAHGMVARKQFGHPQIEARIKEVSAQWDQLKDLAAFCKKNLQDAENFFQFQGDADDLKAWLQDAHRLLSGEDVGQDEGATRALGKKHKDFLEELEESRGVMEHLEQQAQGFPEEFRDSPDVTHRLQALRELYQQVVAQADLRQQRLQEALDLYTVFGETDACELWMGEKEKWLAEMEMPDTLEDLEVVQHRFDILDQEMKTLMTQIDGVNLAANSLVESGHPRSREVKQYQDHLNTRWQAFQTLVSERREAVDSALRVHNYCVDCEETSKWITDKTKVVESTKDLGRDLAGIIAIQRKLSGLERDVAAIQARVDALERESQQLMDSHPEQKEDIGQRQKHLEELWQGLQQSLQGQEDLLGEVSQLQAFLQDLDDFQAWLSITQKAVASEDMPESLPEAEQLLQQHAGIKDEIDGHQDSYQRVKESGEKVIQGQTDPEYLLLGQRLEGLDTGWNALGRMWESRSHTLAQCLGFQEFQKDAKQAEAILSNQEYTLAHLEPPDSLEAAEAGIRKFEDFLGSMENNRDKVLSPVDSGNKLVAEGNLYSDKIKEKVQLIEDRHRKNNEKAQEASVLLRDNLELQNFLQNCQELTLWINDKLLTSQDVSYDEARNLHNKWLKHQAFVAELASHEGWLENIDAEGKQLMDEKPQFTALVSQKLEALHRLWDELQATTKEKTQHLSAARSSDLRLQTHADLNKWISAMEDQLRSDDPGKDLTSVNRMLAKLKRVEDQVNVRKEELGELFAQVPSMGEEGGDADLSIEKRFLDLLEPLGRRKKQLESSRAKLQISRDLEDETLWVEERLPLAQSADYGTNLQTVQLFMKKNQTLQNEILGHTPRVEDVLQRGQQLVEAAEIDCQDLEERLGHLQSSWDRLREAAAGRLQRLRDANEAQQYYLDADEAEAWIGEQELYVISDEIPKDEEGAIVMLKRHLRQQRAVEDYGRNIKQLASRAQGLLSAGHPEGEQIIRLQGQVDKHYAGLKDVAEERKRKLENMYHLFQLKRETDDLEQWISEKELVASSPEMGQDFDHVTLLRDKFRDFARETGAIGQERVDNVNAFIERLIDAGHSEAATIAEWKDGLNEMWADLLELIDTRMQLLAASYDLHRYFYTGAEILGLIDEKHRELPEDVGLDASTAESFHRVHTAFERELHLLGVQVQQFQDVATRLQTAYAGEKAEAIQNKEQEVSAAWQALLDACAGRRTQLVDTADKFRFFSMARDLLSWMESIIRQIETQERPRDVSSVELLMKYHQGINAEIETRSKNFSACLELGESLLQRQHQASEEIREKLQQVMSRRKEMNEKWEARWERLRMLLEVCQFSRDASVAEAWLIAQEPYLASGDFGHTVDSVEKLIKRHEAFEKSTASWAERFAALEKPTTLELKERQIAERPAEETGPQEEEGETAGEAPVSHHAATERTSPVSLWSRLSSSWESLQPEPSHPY
Protocol: (§1) Human RBC spectrin, bovine myosin (heavy chain), mouse albumin, mouse hemoglobin, mouse transferrin, hen egg lysozyme, rabbit actin, rabbit myelin basic protein, and keyhole limpet hemocyanin (KLH) were purchased from Sigma. Proteins were tested for purity by SDS-polyacrylamide gel electrophoresis. […] Protein antigens were used at 5 μg/ml, and hapten was used at 2 μM. The proteins and hapten-BSA antigens were coated onto polystyrene or polyvinylchloride microtiter plates in 0.1 M carbonate buffer, pH 9.5, for 18 hours at 4° C. Coated plates were blocked with PBS containing 5% nonfat dry mild and 0.05% Tween 20 for 2 hours at room temperature, and incubated with mAbs diluted in blocking buffer (2 μg/ml) for 4 hours at room temperature. […] Bound IgM was detected with biotinylated goat anti-mouse IgM (p chain specific; Jackson Immunoresearch, West Grove, Pa.) followed by alkaline phosphatase conjugated to streptavidin, with p-nitrophenylphosphate as the chromogenic substrate. Absorbance was determined at 405 nm.

[3] = target: T3, rabbit myelin basic protein (rabbit, UniProt P25274 1-168); test: direct ELISA, antigen coated at 5 µg/ml
T3 construct: Bought from Sigma; also called rabbit MBP
T3 sequence (P25274 whole entry): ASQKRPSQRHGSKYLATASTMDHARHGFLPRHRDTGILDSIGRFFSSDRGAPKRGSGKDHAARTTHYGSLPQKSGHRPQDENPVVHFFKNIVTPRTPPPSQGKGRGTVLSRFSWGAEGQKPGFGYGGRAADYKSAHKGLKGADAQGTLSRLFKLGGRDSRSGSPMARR
Protocol: as §1

[4] = target: T4, hen egg lysozyme (hen (chicken), UniProt P00698 19-147); test: direct ELISA, antigen coated at 5 µg/ml
T4 construct: Bought from Sigma; also called HEL
T4 sequence (P00698 19-147): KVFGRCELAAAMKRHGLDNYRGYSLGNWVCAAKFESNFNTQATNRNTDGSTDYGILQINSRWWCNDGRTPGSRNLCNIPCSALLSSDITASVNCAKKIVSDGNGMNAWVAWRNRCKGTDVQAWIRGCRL
Protocol: as §1

[5] = target: T5, mouse albumin (mouse, UniProt P07724 25-608); test: direct ELISA, antigen coated at 5 µg/ml
T5 construct: Bought from Sigma
Protocol: as §1

[6] = target: T6, mouse hemoglobin (mouse, UniProt P01942 2-142; P02088 2-147); test: direct ELISA, antigen coated at 5 µg/ml
T6 construct: Bought from Sigma; also called Mo Hb
Protocol: as §1

[7] = target: T2, human RBC spectrin; test: direct ELISA, antigen coated at 5 µg/ml
Protocol: as §1

[8] = target: T7, mouse transferrin (mouse, UniProt Q921I1 20-697); test: direct ELISA, antigen coated at 5 µg/ml
T7 construct: Bought from Sigma
Protocol: as §1

B1: monoclonal antibody SCH94.03 (antibody, V domains shown)
VH: QVQLQQPGTELVKPGASVKLSCKASGYTFTSYWMHWVKQRPGQGLEWIGNINPSNGGTNYNEKFKSKATLTVDKSSSTAYMQLSSLTSEDSAVYYCARRAPYYGSRNFDYWGQGTTLTVSS
VL: DIQMTQTTSSLSASLGDRVTISCRASQDISNYLNWYQQKPDGTVKLLIYYTSRLHSGVPSRFSGSGSGTDYSLTISNLEQEDIATYFCQQGNTLPWTFGGGTKLEIKR
[1]
  binding result: no binding

B2: mAb O1 (antibody, V domains shown)
VH: QVQLQQSGPELVKPGALVKISCKASGYTFTSYDINWVKQRPGQGLEWIGWIYPGDGSTKYNEKFKGKATLTADKSSSTAYMQLSSLTSENSAVYFCARGARFYWYFDVWGAGTTVTVSS
VL: DVQITQSPSYLAASPGETITINCRASKSISKYLAWYQEKPGKTNKLLIYSGSTLQSGIPSRFSGSGSGTDFTLTISSLEPEDFAMYYCQQHNEYPYTFGGGTKLEIKR
notes: Mouse IgM kappa; Entries may include the leader peptide; The hybridoma also makes the MOPC21 kappa chain; also called 01
[2]
  binding result: binds

B3: mAb A2B5 (antibody, mouse IgM, V domains shown)
VH: EVKLVESGGGLVQPGGSLRLSCATSGFTFSDFYMEWVRQPPGKRLEWIAASRNKANDYTTEYSASVKGRFIVSRDTSQSILYLQMNALRAEDTAIYYCARDARQLGLPAWFAYWGQGTLVTVSA
VL: QIVLTQSPAIMSASPGEKVTISCSASSSVSYMYWYQQKPGSSPKPWIYRTSNLASGVPARFSGSGSGTSYSLTISSMEAEDAATYYCQQYHSYPLTFGAGTKLELKR
notes: Mouse IgM kappa
[3]
  binding result: no binding (tested: mAbs at 2 µg/ml)
[4]
  binding result: no binding (tested: mAbs at 2 µg/ml)
[5]
  binding result: no binding (tested: mAbs at 2 µg/ml)
[6]
  binding result: no binding (tested: mAbs at 2 µg/ml)
[7]
  binding result: no binding (tested: mAbs at 2 µg/ml)
[8]
  binding result: no binding (tested: mAbs at 2 µg/ml)
